One molecule from article PMC4561382, “Aven recognition of RNA G-quadruplexes regulates translation of the mixed lineage leukemia protooncogenes” can be followed below.

For one series, the target named is T1, Aven TriRG peptide (human, UniProt Q9NQS1).
T1 chain: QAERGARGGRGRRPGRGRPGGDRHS
Put plainly: fluorescence plate binding (immobilized peptide); K+-folded RNA; range given jointly for TriRG and TriRGme; RNA folded in 10 mM Tris-acetate pH 7.7, 200 mM K-acetate, 5 mM Mg-acetate (75 C 10 min, 21 C 5 min); peptide assay 1 h at room temperature, washes in this buffer; pull-down 100 nM RNA in cell lysate with 2 mg/ml heparin, 1 h on ice, beads 30 min at 4 C. The note with it: tags: N-terminal biotin; G4.

The next series concerns the target T2, Aven DiRGG peptide (human, UniProt Q9NQS1).
T2 chain: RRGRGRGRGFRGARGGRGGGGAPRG
The series can be described thus: fluorescence plate binding (immobilized peptide); K+-folded RNA; joint range (173-200 in author response); RNA folded in 10 mM Tris-acetate pH 7.7, 200 mM K-acetate, 5 mM Mg-acetate (75 C 10 min, 21 C 5 min); peptide assay 1 h at room temperature, washes in this buffer; pull-down 100 nM RNA in cell lysate with 2 mg/ml heparin, 1 h on ice, beads 30 min at 4 C. The settings on record: tags: N-terminal biotin; G4.

A word on the Kd: it is the equilibrium constant for the complex coming apart. With GCUGCGGUGUGGAAGGAGUGGUCGGGUUGCGCAGCG (structured_RNA) [sc1 G4 (fluorescein)], the Kd was roughly 84.8 nM with Aven TriRG peptide and roughly 187 nM with Aven DiRGG peptide.
